The target in the assay is T1, E. coli methionine aminopeptidase (MetAP), type-1a, N-terminal poly-His-tagged (E. coli, UniProt P0AE18 1-264).
T1 sequence (looked up): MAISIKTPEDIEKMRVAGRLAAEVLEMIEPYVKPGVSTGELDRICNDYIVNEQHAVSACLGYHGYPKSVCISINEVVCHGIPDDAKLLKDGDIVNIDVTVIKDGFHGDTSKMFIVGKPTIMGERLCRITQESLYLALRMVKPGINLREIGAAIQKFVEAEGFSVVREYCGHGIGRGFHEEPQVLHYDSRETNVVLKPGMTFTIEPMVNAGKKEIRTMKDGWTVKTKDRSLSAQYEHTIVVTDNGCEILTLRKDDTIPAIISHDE
In words: cryo-EM structure.

B1: E. coli peptide deformylase (PDF), N-terminal His6-tagged (enzyme, UniProt P0A6K3 1-169, looked up)
chain: MSVLQVLHIPDERLRKVAKPVEEVNAEIQRIVDDMFETMYAEEGIGLAATQVDIHQRIIVIDVSENRDERLVLINPELLEKSGETGIEEGCLSIPEQRALVPRAEKVKIRALDRDGKPFELEADGLLAICIQHEMDHLVGKLFMDYLSPLKQQRIRQKVEKLDRLKARA
As to B1, the binding result is given as “binds”.

For the origin of these results see paper doi:10.1101/312850 (bioRxiv, 2018).
